Experimental data published in US20240400614A1, “CLEAVABLE PEPTIDES AND METHODS OF USE THEREOF” (Bright Peak Therapeutics AG, priority 2023, published 2024).
Square brackets hold non-standard residues; d marks the D form. Ends that are not written are not given here. Tyr(3-NO2) = N[C@@H](Cc1ccc(O)c([N+](=O)[O-])c1)C(=O)O; Nle = CCCC[C@H](N)C(=O)O; 2Abz = Nc1ccccc1C(=O)O

Key:
Type in all cases: biochemical
uPA = uPA (Homo sapiens, UniProt P00749); test: FRET peptide cleavage efficiency with uPA
matriptase = target: T1, matriptase (Homo sapiens, UniProt Q9Y5Y6); test: FRET peptide cleavage efficiency with matriptase
T1 construct: purchased R&D Systems 3946-SEB
T1 sequence (Q9Y5Y6 615-855 limits assumed): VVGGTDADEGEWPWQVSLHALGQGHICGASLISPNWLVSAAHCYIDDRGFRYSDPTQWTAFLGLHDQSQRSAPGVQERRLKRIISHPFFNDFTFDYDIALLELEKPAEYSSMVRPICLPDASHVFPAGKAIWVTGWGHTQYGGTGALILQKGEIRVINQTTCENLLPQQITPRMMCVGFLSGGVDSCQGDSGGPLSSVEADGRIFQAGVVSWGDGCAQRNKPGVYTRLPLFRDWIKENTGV

MMP-2 = target: T2, MMP-2 (Homo sapiens, UniProt P08253); test: FRET peptide cleavage efficiency with MMP-2
T2 construct: purchased SIGMA PF023
T2 sequence (P08253 110-660): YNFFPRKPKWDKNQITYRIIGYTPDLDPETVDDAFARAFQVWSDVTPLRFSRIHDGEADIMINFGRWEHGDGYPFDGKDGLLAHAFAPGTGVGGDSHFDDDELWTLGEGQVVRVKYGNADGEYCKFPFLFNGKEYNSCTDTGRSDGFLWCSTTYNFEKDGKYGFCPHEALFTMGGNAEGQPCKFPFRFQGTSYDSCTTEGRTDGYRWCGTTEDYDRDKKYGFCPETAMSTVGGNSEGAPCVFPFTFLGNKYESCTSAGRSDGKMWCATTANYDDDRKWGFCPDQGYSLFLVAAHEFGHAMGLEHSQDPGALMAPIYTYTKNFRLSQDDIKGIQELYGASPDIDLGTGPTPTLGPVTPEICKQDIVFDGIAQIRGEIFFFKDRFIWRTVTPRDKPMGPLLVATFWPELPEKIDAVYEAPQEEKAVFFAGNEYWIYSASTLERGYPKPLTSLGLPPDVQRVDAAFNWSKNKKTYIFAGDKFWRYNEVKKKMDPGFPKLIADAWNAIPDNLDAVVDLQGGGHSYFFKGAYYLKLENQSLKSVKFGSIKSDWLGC

MMP-7 = target: T3, MMP-7 (Homo sapiens, UniProt P09237); test: FRET peptide cleavage efficiency with MMP-7 (standard pH 7.5; also pH 6.5)
T3 construct: purchased SIGMA CC1059
T3 sequence (P09237 95-267): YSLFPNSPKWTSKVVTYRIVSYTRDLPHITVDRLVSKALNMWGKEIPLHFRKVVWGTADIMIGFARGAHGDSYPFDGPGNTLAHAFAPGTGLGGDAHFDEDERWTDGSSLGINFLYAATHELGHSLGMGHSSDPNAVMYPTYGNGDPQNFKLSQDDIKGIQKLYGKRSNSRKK

MMP-9 = target: T4, MMP-9 (Homo sapiens, UniProt P14780); test: FRET peptide cleavage efficiency with MMP-9 (standard pH 7.5; also pH 6.5)
T4 construct: purchased SIGMA PF024
T4 sequence (P14780 94-707): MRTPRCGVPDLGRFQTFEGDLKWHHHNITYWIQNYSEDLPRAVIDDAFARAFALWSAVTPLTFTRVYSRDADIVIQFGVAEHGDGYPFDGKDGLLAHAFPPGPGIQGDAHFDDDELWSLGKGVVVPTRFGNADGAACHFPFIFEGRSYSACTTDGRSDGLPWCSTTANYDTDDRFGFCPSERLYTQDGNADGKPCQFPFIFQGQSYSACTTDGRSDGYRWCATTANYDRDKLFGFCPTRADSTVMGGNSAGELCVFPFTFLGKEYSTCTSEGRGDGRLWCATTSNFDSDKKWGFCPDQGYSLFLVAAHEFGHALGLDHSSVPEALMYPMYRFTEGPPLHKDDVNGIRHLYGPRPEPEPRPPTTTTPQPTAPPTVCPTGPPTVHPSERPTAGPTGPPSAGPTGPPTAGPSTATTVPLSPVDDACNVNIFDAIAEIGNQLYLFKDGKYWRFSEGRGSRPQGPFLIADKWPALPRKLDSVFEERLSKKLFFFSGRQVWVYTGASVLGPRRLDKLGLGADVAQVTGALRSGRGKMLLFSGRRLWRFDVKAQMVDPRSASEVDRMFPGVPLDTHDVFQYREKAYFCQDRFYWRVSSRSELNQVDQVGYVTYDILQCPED

[1] = t = 15 min, standard conditions (Table 8)
[2] = t = 60 min, standard conditions (Table 8)
[3] = t = 120 min, standard conditions (Table 8)
[4] = 200 uM linker, 1 ug/ml protease, 37° C., buffer A pH 8.5
[5] = 200 uM linker, 1 ug/ml protease, 37° C., buffer B pH 9.0

SGRVAPYMLQG ([2Abz]SGRVAPYMLQG[Tyr(3-NO2)]-NH2) [LNK042]
% vcleavage uPA t = 15 min (uPA; [1]): 2% | % cleavage uPA t = 60 min (uPA; standard conditions (Table 8)): 6% | % cleavage uPA t = 120 min (uPA; standard conditions (Table 8)): 13% | % cleavage Matriptase t = 15 min (matriptase; standard conditions (Table 8)): 28% | % cleavage Matriptase t = 60 min (matriptase; standard conditions (Table 8)): 80% | % cleavage Matriptase t = 120 min (matriptase; standard conditions (Table 8)): 100% | % cleavage MMP-2 t = 15 min (MMP-2; t = 15 min (Table 9)): 49% | % cleavage MMP-2 t = 60 min (MMP-2; t = 60 min (Table 9)): 91% | % cleavage MMP-2 t = 60 min (MMP-2; [2]): 91% | % cleavage MMP-2 t = 120 min (MMP-2; t = 120 min (Table 9)): 100% | % cleavage MMP-2 t = 120 min (MMP-2; [3]): 100% | % cleavage MMP-7 t = 15 min (MMP-7; t = 15 min (Table 9)): 59% | % cleavage MMP-7 t = 15 min (MMP-7; [1]): 59% | % cleavage MMP-7 t = 60 min (MMP-7; t = 60 min (Table 9)): 100% | % cleavage MMP-7 t = 60 min (MMP-7; [2]): 100% | % cleavage MMP-7 t = 120 min (MMP-7; t = 120 min (Table 9)): 100% | % cleavage MMP-7 t = 120 min (MMP-7; [3]): 100% | % cleavage MMP-9 t = 15 min (MMP-9; t = 15 min (Table 9)): 55% | % cleavage MMP-9 t = 15 min (MMP-9; [1]): 55% | % cleavage MMP-9 t = 60 min (MMP-9; t = 60 min (Table 9)): 100% | % cleavage MMP-9 t = 60 min (MMP-9; [2]): 100% | % cleavage MMP-9 t = 120 min (MMP-9; t = 120 min (Table 9)): 100% | % cleavage MMP-9 t = 120 min (MMP-9; [3]): 100%

RGRRAANLVRPLGYFGKL ([2Abz]RGRRAANLVRPLGYFGKL[Tyr(3-NO2)]-NH2) [LNK060]
% cleavage uPA t = 15 min (uPA; t = 15 min, 200 uM linker, 1 ug/ml protease, 37° C., buffer A pH 8.5): 2% | % cleavage uPA t = 60 min (uPA; [4]): 11% | % cleavage uPA t = 120 min (uPA; [4]): 25% | % cleavage Matriptase t = 15 min (matriptase; [5]): 90% | % cleavage Matriptase t = 60 min (matriptase; [5]): 100% | % cleavage Matriptase t = 120 min (matriptase; [5]): 100% | % cleavage MMP-2 t = 15 min (MMP-2; t = 15 min (Table 9)): 76% | % cleavage MMP-2 t = 15 min (MMP-2; t = 15 min, 200 uM linker, 1 ug/ml protease, 37° C., buffer C pH 7.5): 76% | % cleavage MMP-2 t = 60 min (MMP-2; t = 60 min (Table 9)): 100% | % cleavage MMP-2 t = 60 min (MMP-2; t = 60 min, 200 uM linker, 1 ug/ml protease, 37° C., buffer C pH 7.5): 100% | % cleavage MMP-2 t = 120 min (MMP-2; t = 120 min (Table 9)): 100% | % cleavage MMP-2 t = 120 min (MMP-2; t = 120 min, 200 uM linker, 1 ug/ml protease, 37° C., buffer C pH 7.5): 100% | % cleavage MMP-7 t = 15 min (MMP-7; t = 15 min (Table 9)): 0% | % cleavage MMP-7 t = 60 min (MMP-7; t = 60 min (Table 9)): 0% | % cleavage MMP-7 t = 120 min (MMP-7; t = 120 min (Table 9)): 0% | % cleavage MMP-9 t = 15 min (MMP-9; t = 15 min (Table 9)): 32% | % cleavage MMP-9 t = 60 min (MMP-9; t = 60 min (Table 9)): 100% | % cleavage MMP-9 t = 120 min (MMP-9; t = 120 min (Table 9)): 100%

RGRKPY-Nle-LQG ([2Abz]RGRKPY[Nle]LQG[Tyr(3-NO2)]-NH2) [LNK036]
% vcleavage uPA t = 15 min (uPA; [1]): 0% | % cleavage uPA t = 60 min (uPA; standard conditions (Table 8)): 0% | % cleavage uPA t = 120 min (uPA; standard conditions (Table 8)): 0% | % cleavage Matriptase t = 15 min (matriptase; standard conditions (Table 8)): 76% | % cleavage Matriptase t = 60 min (matriptase; standard conditions (Table 8)): 100% | % cleavage Matriptase t = 120 min (matriptase; standard conditions (Table 8)): 100% | % cleavage MMP-2 t = 15 min (MMP-2; t = 15 min (Table 9)): 27% | % cleavage MMP-2 t = 60 min (MMP-2; t = 60 min (Table 9)): 70% | % cleavage MMP-2 t = 60 min (MMP-2; [2]): 70% | % cleavage MMP-2 t = 120 min (MMP-2; t = 120 min (Table 9)): 88% | % cleavage MMP-2 t = 120 min (MMP-2; [3]): 88% | % cleavage MMP-7 t = 15 min (MMP-7; t = 15 min (Table 9)): 34% | % cleavage MMP-7 t = 15 min (MMP-7; [1]): 34% | % cleavage MMP-7 t = 60 min (MMP-7; t = 60 min (Table 9)): 88% | % cleavage MMP-7 t = 60 min (MMP-7; [2]): 88% | % cleavage MMP-7 t = 120 min (MMP-7; t = 120 min (Table 9)): 100% | % cleavage MMP-7 t = 120 min (MMP-7; [3]): 100% | % cleavage MMP-9 t = 15 min (MMP-9; t = 15 min (Table 9)): 28% | % cleavage MMP-9 t = 15 min (MMP-9; [1]): 28% | % cleavage MMP-9 t = 60 min (MMP-9; t = 60 min (Table 9)): 87% | % cleavage MMP-9 t = 60 min (MMP-9; [2]): 87% | % cleavage MMP-9 t = 120 min (MMP-9; t = 120 min (Table 9)): 100% | % cleavage MMP-9 t = 120 min (MMP-9; [3]): 100%

RGRKVANLVG ([2Abz]RGRKVANLVG[Tyr(3-NO2)]-NH2) [LNK031]
% vcleavage uPA t = 15 min (uPA; [1]): 1% | % cleavage uPA t = 60 min (uPA; standard conditions (Table 8)): 1% | % cleavage uPA t = 120 min (uPA; standard conditions (Table 8)): 2% | % cleavage Matriptase t = 15 min (matriptase; standard conditions (Table 8)): 99% | % cleavage Matriptase t = 60 min (matriptase; standard conditions (Table 8)): 100% | % cleavage Matriptase t = 120 min (matriptase; standard conditions (Table 8)): 100% | % cleavage MMP-2 t = 15 min (MMP-2; t = 15 min (Table 9)): 77% | % cleavage MMP-2 t = 60 min (MMP-2; t = 60 min (Table 9)): 100% | % cleavage MMP-2 t = 60 min (MMP-2; [2]): 100% | % cleavage MMP-2 t = 120 min (MMP-2; t = 120 min (Table 9)): 100% | % cleavage MMP-2 t = 120 min (MMP-2; [3]): 100% | % cleavage MMP-7 t = 15 min (MMP-7; t = 15 min (Table 9)): 22% | % cleavage MMP-7 t = 15 min (MMP-7; [1]): 22% | % cleavage MMP-7 t = 60 min (MMP-7; t = 60 min (Table 9)): 74% | % cleavage MMP-7 t = 60 min (MMP-7; [2]): 74% | % cleavage MMP-7 t = 120 min (MMP-7; t = 120 min (Table 9)): 93% | % cleavage MMP-7 t = 120 min (MMP-7; [3]): 93% | % cleavage MMP-9 t = 15 min (MMP-9; t = 15 min (Table 9)): 75% | % cleavage MMP-9 t = 15 min (MMP-9; [1]): 75% | % cleavage MMP-9 t = 60 min (MMP-9; t = 60 min (Table 9)): 100% | % cleavage MMP-9 t = 60 min (MMP-9; [2]): 100% | % cleavage MMP-9 t = 120 min (MMP-9; t = 120 min (Table 9)): 100% | % cleavage MMP-9 t = 120 min (MMP-9; [3]): 100%
